According to patent US20240317834A1, “COMPOSITIONS AND METHODS FOR NEUROLOGICAL DISEASES” (CODA BIOTHERAPEUTICS, INC., priority 2020, published 2024):

How the values were obtained:
[1] = test system: rat DRG neurons; experiment: Rheobase shift and evoked action potentials in rat DRG neurons (current clamp); type: cell-based; settings: for Rheobase Shift; Rat DRG Neurons, Baseline: no ligand
Summary of the method: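 Rat DRG neurons expressing engineered receptors, whole-cell current clamp at RT. ECS at pH 7.3; K-gluconate internal at pH 7.2. 500 ms steps from −200 to 700 pA with and without ligand. Rheobase taken as the smallest depolarising step that fires an action potential; input resistance from negative steps.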

[2] = test system: Lenti-X 293T cells; experiment: YFP fluorescence quenching anion reporter plate reader assay of engineered receptors stimulated with acetylcholine or a non-native ligand; type: cell-based; settings: for percent quench of YFP fluorescence, 30 nM TC-6683: TC-6683 30 nM; for percent quench of YFP fluorescence, 300 nM TC-6683: TC-6683 300 nM; for percent quench of YFP fluorescence, 3 uM TC-6683: TC-6683 3 uM; for percent quench of YFP fluorescence, 30 uM TC-6683: TC-6683 30 uM; for percent quench of YFP fluorescence, 100 uM TC-6683: TC-6683 100 uM; for percent quench of YFP fluorescence, 100 uM ach: acetylcholine 100 uM; for percent quench of YFP fluorescence, 300 uM ach: acetylcholine 300 uM; for percent quench of YFP fluorescence, 500 uM ach: acetylcholine 500 uM; for percent quench of YFP fluorescence, 1 mM ach: acetylcholine 1 mM; for percent quench of YFP fluorescence, 3 mM ach: acetylcholine 3 mM; for percent quench of YFP fluorescence, 10 mM ach: acetylcholine 10 mM
Summary of the method: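 Lenti-X 293T cells carrying a YFP anion reporter were transiently transfected with channel DNA and assayed the next day in HEPES-buffered ECS at pH 7.2. Ligand (acetylcholine or non-native ligand) was added in NaI-substituted ECS. Percent quench was the mean of the last 10 s relative to the 15 s pre-addition baseline.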

B1: CODA1054: engineered chimeric LGIC receptor, R101M, L131F in SEQ ID NO: 33 (protein)
chain: MRCSPGGVWLALAASLLHVSLQGEFQRKLYKELVKNYNPLERPVANDSQPLTVYFSLSLLQIMDVDEKNQVLTTNIWLQMSWTDHYLQWNVSEYPGVKTVMFPDGQIWKPDILLYNSADERFDATFHTNVFVNSSGHCQYLPPGIFKSSCPMDLKNFPMDVQTCKLKFGSWSYGGWSLDLQMQEADISGYIPNGEWDLVGIPGKRSERFYECCKEPYPDVTFTVTMRRRMGYYLIQMYIPSLLIVILSWISFWINMDAAPARVGLGITTVLTMTTQSSGSRASLPKVSYVKAIDIWMAVCLLFVFSALLEYAAVNFVSRQHKELLRFRRKRRHHKSPMLNLFQEDEAGEGRFNFSAYGMGPACLQAKDGISVKGANNSNTTNPPPAPSKSPEEMRKLFIQRAKKIDKISRIGFPMAFLIFNMFYWIIYKIVRREDVHNQ
modifications: synthetic sequence of chimeric LGIC
In the case of B1, the “Rheobase Shift; Rat DRG Neurons, +TC-5619 @ EC90” value [1] is reported as 673 ± 27 pA, the “Rheobase Shift; Rat DRG Neurons, Baseline” value [1] is reported as 105 ± 13 pA and the “YFP fluorescence quenching using CNL001” value ([2]; 1 nM CNL001, first column) is reported as 21.932%. The “YFP fluorescence quenching using CNL001” value ([2]; 1 nM CNL001, second column) was 39.689%, the “YFP fluorescence quenching using TC-5619/Bradanicline” value ([2]; 1 nM brd) was 6.609% and the “YFP fluorescence quenching using TC-5619/Bradanicline” value ([2]; 3 nM brd) was −7.635%. For the same molecule, the “YFP fluorescence quenching using Varenicline” value ([2]; 3 nM var, first column) was 34.923, the “YFP fluorescence quenching using Varenicline” value ([2]; 3 nM var, second column) was 28.944 and the “YFP fluorescence quenching using CNL001” value ([2]; 10 nM CNL001, first column) was 54.192%. The “YFP fluorescence quenching using CNL001” value ([2]; 10 nM CNL001, second column) was 64.111%, the “YFP fluorescence quenching using TC-5619/Bradanicline” value ([2]; 10 nM brd) was 4.459% and the “YFP fluorescence quenching using TC-5619/Bradanicline” value ([2]; 30 nM brd) was 69.782%. For the same molecule, the “YFP fluorescence quenching using Varenicline” value ([2]; 30 nM var, first column) was 42.214, the “YFP fluorescence quenching using Varenicline” value ([2]; 30 nM var, second column) was 43.015 and the “YFP fluorescence quenching using CNL001” value ([2]; 50 nM CNL001, first column) was 71.409%. For the same molecule, the “YFP fluorescence quenching using CNL001” value ([2]; 50 nM CNL001, second column) was 70.989%, the “YFP fluorescence quenching using ABT-126” value ([2]; 50 nM abt) was −19.54% and the “YFP fluorescence quenching using CNL001” value ([2]; 100 nM CNL001, first column) was 74.148%. For the same molecule, the “YFP fluorescence quenching using CNL001” value ([2]; 100 nM CNL001, second column) was 71.722%, the “YFP fluorescence quenching using ABT-126” value ([2]; 100 nM abt) was −18.28% and the “YFP fluorescence quenching using TC-5619/Bradanicline” value ([2]; 100 nM brd) was 77.633%. The “YFP fluorescence quenching using ABT-126” value ([2]; 300 nM abt) was −16.87%, the “YFP fluorescence quenching using TC-5619/Bradanicline” value ([2]; 300 nM brd) was 72.933% and the “YFP fluorescence quenching using Varenicline” value ([2]; 300 nM var, first column) was 47.059. For the same molecule, the “YFP fluorescence quenching using Varenicline” value ([2]; 300 nM var, second column) was 52.768, the “YFP fluorescence quenching using Varenicline” value ([2]; 500 nM var, first column) was 59.542 and the “YFP fluorescence quenching using Varenicline” value ([2]; 500 nM var, second column) was 62.641. The “YFP fluorescence quenching using CNL001” value ([2]; 1 uM CNL001, first column) was 71.378%, the “YFP fluorescence quenching using CNL001” value ([2]; 1 uM CNL001, second column) was 71.411% and the “YFP fluorescence quenching using ABT-126” value ([2]; 1 uM abt) was −11.77%. For the same molecule, the “YFP fluorescence quenching using Varenicline” value ([2]; 1 uM var, first column) was 71.449, the “YFP fluorescence quenching using Varenicline” value ([2]; 1 uM var, second column) was 69.145 and the “percent quench of YFP fluorescence, 30 nM TC-6683” value [2] was −22.996%. The “percent quench of YFP fluorescence, 300 nM TC-6683” value [2] was −27.055%, the “percent quench of YFP fluorescence, 3 uM TC-6683” value [2] was −18.611% and the “percent quench of YFP fluorescence, 30 uM TC-6683” value [2] was −13.879%. For the same molecule, the “percent quench of YFP fluorescence, 100 uM TC-6683” value [2] was −21.521%, the “percent quench of YFP fluorescence, 10 uM ach” value ([2]; acetylcholine 10 uM) was −3.98% and the “percent quench of YFP fluorescence, 100 uM ach” value [2] was −10.34%. The “percent quench of YFP fluorescence, 300 uM ach” value [2] was −10.25%, the “percent quench of YFP fluorescence, 500 uM ach” value [2] was −11.46% and the “percent quench of YFP fluorescence, 1 mM ach” value [2] was 1.77%. The “percent quench of YFP fluorescence, 3 mM ach” value [2] was 36.81% and the “percent quench of YFP fluorescence, 10 mM ach” value [2] was 74.02%.

B2: CODA1055: engineered chimeric LGIC receptor, R101W, Y115E, Y210W in SEQ ID NO: 33 (protein)
chain: MRCSPGGVWLALAASLLHVSLQGEFQRKLYKELVKNYNPLERPVANDSQPLTVYFSLSLLQIMDVDEKNQVLTTNIWLQMSWTDHYLQWNVSEYPGVKTVWFPDGQIWKPDILLENSADERFDATFHTNVLVNSSGHCQYLPPGIFKSSCPMDLKNFPMDVQTCKLKFGSWSYGGWSLDLQMQEADISGYIPNGEWDLVGIPGKRSERFWECCKEPYPDVTFTVTMRRRMGYYLIQMYIPSLLIVILSWISFWINMDAAPARVGLGITTVLTMTTQSSGSRASLPKVSYVKAIDIWMAVCLLFVFSALLEYAAVNFVSRQHKELLRFRRKRRHHKSPMLNLFQEDEAGEGRFNFSAYGMGPACLQAKDGISVKGANNSNTTNPPPAPSKSPEEMRKLFIQRAKKIDKISRIGFPMAFLIFNMFYWIIYKIVRREDVHNQ
modifications: synthetic sequence of chimeric LGIC
B2 was tested, and the “Rheobase Shift; Rat DRG Neurons, +TC-5619 @ EC90” value [1] was 562 ± 35 pA, the “Rheobase Shift; Rat DRG Neurons, Baseline” value [1] was 83 ± 7 pA and the “YFP fluorescence quenching using CNL001” value ([2]; 1 nM CNL001, first column) was −12.889%. The “YFP fluorescence quenching using CNL001” value ([2]; 1 nM CNL001, second column) was −13.295%, the “YFP fluorescence quenching using TC-5619/Bradanicline” value ([2]; 1 nM brd) was −8.113% and the “YFP fluorescence quenching using TC-5619/Bradanicline” value ([2]; 3 nM brd) was −11.136%. For the same molecule, the “YFP fluorescence quenching using Varenicline” value ([2]; 3 nM var, first column) was 0.468, the “YFP fluorescence quenching using Varenicline” value ([2]; 3 nM var, second column) was −10.015 and the “YFP fluorescence quenching using CNL001” value ([2]; 10 nM CNL001, first column) was −10.401%. The “YFP fluorescence quenching using CNL001” value ([2]; 10 nM CNL001, second column) was −7.981%, the “YFP fluorescence quenching using TC-5619/Bradanicline” value ([2]; 10 nM brd) was 38.755% and the “YFP fluorescence quenching using TC-5619/Bradanicline” value ([2]; 30 nM brd) was 39.111%. The “YFP fluorescence quenching using Varenicline” value ([2]; 30 nM var, first column) was −15.532, the “YFP fluorescence quenching using Varenicline” value ([2]; 30 nM var, second column) was −14.462 and the “YFP fluorescence quenching using CNL001” value ([2]; 50 nM CNL001, first column) was −1.972%. The “YFP fluorescence quenching using CNL001” value ([2]; 50 nM CNL001, second column) was −1.661%, the “YFP fluorescence quenching using ABT-126” value ([2]; 50 nM abt) was −21.36% and the “YFP fluorescence quenching using CNL001” value ([2]; 100 nM CNL001, first column) was 0.277%. The “YFP fluorescence quenching using CNL001” value ([2]; 100 nM CNL001, second column) was 4.325%, the “YFP fluorescence quenching using ABT-126” value ([2]; 100 nM abt) was −22.28% and the “YFP fluorescence quenching using TC-5619/Bradanicline” value ([2]; 100 nM brd) was 61.378%. For the same molecule, the “YFP fluorescence quenching using ABT-126” value ([2]; 300 nM abt) was −14.63%, the “YFP fluorescence quenching using TC-5619/Bradanicline” value ([2]; 300 nM brd) was 52.398% and the “YFP fluorescence quenching using Varenicline” value ([2]; 300 nM var, first column) was −17.027. The “YFP fluorescence quenching using Varenicline” value ([2]; 300 nM var, second column) was −15.59, the “YFP fluorescence quenching using Varenicline” value ([2]; 500 nM var, first column) was −13.343 and the “YFP fluorescence quenching using Varenicline” value ([2]; 500 nM var, second column) was −10.702. For the same molecule, the “YFP fluorescence quenching using CNL001” value ([2]; 1 uM CNL001, first column) was 2.88%, the “YFP fluorescence quenching using CNL001” value ([2]; 1 uM CNL001, second column) was 3.259% and the “YFP fluorescence quenching using ABT-126” value ([2]; 1 uM abt) was −7.34%. For the same molecule, the “YFP fluorescence quenching using Varenicline” value ([2]; 1 uM var, first column) was −6.604, the “YFP fluorescence quenching using Varenicline” value ([2]; 1 uM var, second column) was −7.612 and the “percent quench of YFP fluorescence, 30 nM TC-6683” value [2] was −30.056%. For the same molecule, the “percent quench of YFP fluorescence, 300 nM TC-6683” value [2] was −30.801%, the “percent quench of YFP fluorescence, 3 uM TC-6683” value [2] was −25.558% and the “percent quench of YFP fluorescence, 30 uM TC-6683” value [2] was −18.295%. For the same molecule, the “percent quench of YFP fluorescence, 100 uM TC-6683” value [2] was −17.554%, the “percent quench of YFP fluorescence, 100 uM ach” value [2] was −15.63% and the “percent quench of YFP fluorescence, 300 uM ach” value [2] was −12.05%. For the same molecule, the “percent quench of YFP fluorescence, 500 uM ach” value [2] was −12.87%, the “percent quench of YFP fluorescence, 1 mM ach” value [2] was −11.55% and the “percent quench of YFP fluorescence, 3 mM ach” value [2] was 12.68%. The “percent quench of YFP fluorescence, 10 mM ach” value [2] was 37.58%.
